Experiment [1] concerns the target native sulfated human cationic trypsin purified from pancreatic juice (human). The experiment can be described thus: KD calculated from the rate constants (association and dissociation rate assays); KD(calc): equilibrium dissociation constant calculated from kon and koff of the activity-based rate assays.
Experiment [2] addresses nonsulfated human cationic trypsin purified from E. coli (human). The experiment is described as above.
In experiment [3] the target is native sulfated human cationic trypsin purified from pancreatic juice (human). Put plainly: discontinuous association rate assay (residual trypsin activity); 50 pM trypsin mixed with 500 pM SPINK1, 0.1 M Tris-HCl (pH 8.0), 150 mM NaCl, 1 mM CaCl2, 0.05% Tween 20, 23 °C; kon from the pseudo-first-order rate constant divided by the inhibitor concentration.
For experiment [4], the target named is nonsulfated human cationic trypsin purified from E. coli (human). The description is as above.
The target in experiment [5] is native sulfated human cationic trypsin purified from pancreatic juice (human). Put plainly: dissociation rate assay (recovery of trypsin activity after dilution of the complex); complex of 11 nM SPINK1 and 10 nM trypsin formed for 1 h at 23 °C, diluted to 50-200 pM with 0.6 mM Z-Gly-Pro-Arg-AMC, 0.1 M Tris-HCl (pH 8.0), 150 mM NaCl, 1 mM CaCl2, 0.05% Tween 20, room temperature, followed for 1 h.

Experiment [6] addresses nonsulfated human cationic trypsin purified from E. coli (human). The description is as above.
Experiment [7] addresses native sulfated human cationic trypsin purified from pancreatic juice (human). Put plainly: equilibrium binding assay (free trypsin activity on a fluorogenic substrate); fixed trypsin incubated with increasing SPINK1, 0.2 ml, 0.1 M Tris-HCl (pH 8.0), 150 mM NaCl, 1 mM CaCl2, 0.05% Tween 20, 15 h; free trypsin measured with Z-Gly-Pro-Arg-AMC; apparent KD, global fit of at least three experiments.

Experiment [8] addresses nonsulfated human cationic trypsin purified from E. coli (human). The description is as above.
Experiment [9] concerns the target nonsulfated human cationic trypsin purified from the conditioned medium of transfected HEK 293T cells (human). Described as above.
Experiment [10] has as its target sulfated human cationic trypsin purified from the conditioned medium of transfected HEK 293T cells (human). The description is as above.
The target of experiment [11] is native sulfated human cationic trypsin purified from pancreatic juice (human). The experiment is described as above. The source holds these as a separate data set.
For experiment [12], the target named is nonsulfated human cationic trypsin purified from E. coli (human). The experiment is described as above. This is another data set of the same source.
In experiment [13] the target is native sulfated human cationic trypsin purified from pancreatic juice (human). The experiment can be described thus: equilibrium binding assay (free trypsin activity on a fluorogenic substrate); as the equilibrium assay but K41N SPINK1 incubated with trypsin for 1 h; 0.1 M Tris-HCl (pH 8.0), 150 mM NaCl, 1 mM CaCl2, 0.05% Tween 20; apparent KD.

For orientation: kon means a measure of how fast the partners come together. By koff is commonly meant the first-order rate constant of dissociation. High values mean fast dissociation, low ones slow dissociation.

B1: serine protease inhibitor Kazal type 1 (SPINK1), wildtype, C-terminal 10His tag (natural protein)
chain: DSLGREAKCYNELNGCTKIYDPVCGTDGNTYPNECVLCFENRKRQTSILIQKSGPC
Take B1: the Kd in experiment [1] is 0.0158 nM; in experiment [2], 0.0027 nM; in [7], 0.0622 nM; in [8] it was 0.0011 nM; in experiment [9], 0.0044 nM; in experiment [10], 0.0402 nM. Moreover, the Kd in experiment [11] stood at 0.0674 nM. The kon in [3] was found to be 3.5e+06 M⁻¹ s⁻¹; in [4] it was 3e+06 M⁻¹ s⁻¹. Besides, the koff in experiment [5] was found to be 5.48e-05 s⁻¹; in [6], 8.2e-06 s⁻¹.

B2: SPINK1 mutant Y43R (natural protein)
chain: DSLGREAKCYNELNGCTKIRDPVCGTDGNTYPNECVLCFENRKRQTSILIQKSGPC
In the case of B2, the Kd is 0.0271 nM in [11] and 0.104 nM in experiment [12].

B3: SPINK1 variant N37S, C-terminal 10His tag (natural protein)
chain: DSLGREAKCYNELSGCTKIYDPVCGTDGNTYPNECVLCFENRKRQTSILIQKSGPC
On to B3, for which the Kd in experiment [7] amounted to 0.0869 nM.

B4: SPINK1 variant R65Q, C-terminal 10His tag (natural protein)
chain: DSLGREAKCYNELNGCTKIYDPVCGTDGNTYPNECVLCFENQKRQTSILIQKSGPC
As for B4, in experiment [7], the Kd was found to be 0.0592 nM.

B5: SPINK1 variant Q68R, C-terminal 10His tag (natural protein)
chain: DSLGREAKCYNELNGCTKIYDPVCGTDGNTYPNECVLCFENRKRRTSILIQKSGPC
In the case of B5, the Kd in experiment [7] amounted to 0.068 nM.

B6: SPINK1 variant K41N, C-terminal 10His tag (natural protein)
chain: DSLGREAKCYNELNGCTNIYDPVCGTDGNTYPNECVLCFENRKRQTSILIQKSGPC
With B6, the Kd in experiment [13] was determined as 1290 nM.

B7: SPINK1 mutant Y43A (natural protein)
chain: DSLGREAKCYNELNGCTKIADPVCGTDGNTYPNECVLCFENRKRQTSILIQKSGPC
As to B7, the Kd came to 0.0622 nM in [11] and 0.0203 nM in experiment [12].

B8: SPINK1 variant I42M, C-terminal 10His tag (natural protein)
chain: DSLGREAKCYNELNGCTKMYDPVCGTDGNTYPNECVLCFENRKRQTSILIQKSGPC
B8: the Kd in experiment [7] was found to be 0.2 nM.

B9: SPINK1 variant P55S, C-terminal 10His tag (natural protein)
chain: DSLGREAKCYNELNGCTKIYDPVCGTDGNTYSNECVLCFENRKRQTSILIQKSGPC
Consider B9, for which, in [7], the Kd was found to be 0.101 nM.

B10: SPINK1 variant N34S, C-terminal 10His tag (natural protein)
chain: DSLGREAKCYSELNGCTKIYDPVCGTDGNTYPNECVLCFENRKRQTSILIQKSGPC
As to B10, the Kd is 0.0164 nM in [1]; 0.0013 nM in [2]; 0.0323 nM in experiment [7]; 0.0015 nM in experiment [8]; 0.0047 nM in experiment [9]; 0.0375 nM in experiment [10]. The values for the kon in experiment [3] and in experiment [4] were 2.7e+06 M⁻¹ s⁻¹ and 5.3e+06 M⁻¹ s⁻¹, respectively. Also, the koff in [5] came out at 4.5e-05 s⁻¹; in experiment [6] it was 7e-06 s⁻¹.

The record behind these values is paper PMC7949130.
